Measured values: article PMC10804666

Assays:
[1] = target: Biotinylated human serum albumin (Homo sapiens) (UniProt P02768); test: flow cytometry on cells; yeast surface titration at pH 7.4: NbAlb1 displayed on yeast (2 x 10^5 cells per well), ten concentrations of soluble biotinylated SA from 30 pM to 1 μM, 1 h at 4°C, PBS pH 7.4 with 0.01% w/v casein, NeutrAvidin DyLight 650, MFI; three independent experiments
[2] = target: Biotinylated recombinant mouse serum albumin (Mus musculus) (UniProt P07724); test: as above

Kd [1]: 6.6 nM | Kd [2]: 54.5 nM
Substance: NbAlb1 displayed on the surface of yeast as NbAlb1-(G4S)3-HA-pStalk fusion protein (VHH)
